From patent US20250381241A1 (Dana-Farber, published 2025)

Molecular target: T1, WDR43 (human, UniProt Q15061 1-677, limits assumed)
T1 construct: Called a core transcriptional assembly factor at TSS; Endogenous protein from lysate
T1 sequence (looked up): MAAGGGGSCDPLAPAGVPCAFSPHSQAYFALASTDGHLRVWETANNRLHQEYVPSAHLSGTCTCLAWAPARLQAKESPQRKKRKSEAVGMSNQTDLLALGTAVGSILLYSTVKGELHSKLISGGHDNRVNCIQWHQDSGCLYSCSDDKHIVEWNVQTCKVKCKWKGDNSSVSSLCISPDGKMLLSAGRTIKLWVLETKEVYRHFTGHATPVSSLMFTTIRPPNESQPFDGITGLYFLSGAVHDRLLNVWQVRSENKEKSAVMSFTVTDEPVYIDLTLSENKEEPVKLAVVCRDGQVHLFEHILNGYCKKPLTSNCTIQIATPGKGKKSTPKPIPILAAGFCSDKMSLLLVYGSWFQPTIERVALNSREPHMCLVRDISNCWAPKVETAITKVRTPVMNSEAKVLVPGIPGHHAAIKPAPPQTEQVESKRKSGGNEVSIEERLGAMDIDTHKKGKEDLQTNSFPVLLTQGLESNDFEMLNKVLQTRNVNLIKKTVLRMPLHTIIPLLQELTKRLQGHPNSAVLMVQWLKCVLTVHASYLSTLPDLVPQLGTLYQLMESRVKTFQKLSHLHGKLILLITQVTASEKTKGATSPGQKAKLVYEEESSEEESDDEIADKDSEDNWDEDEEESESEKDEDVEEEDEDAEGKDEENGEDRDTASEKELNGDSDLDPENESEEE
Assay: co-immunoprecipitation of ectopically expressed HA-tagged RIOK2 with monoclonal anti-HA antibody beads, then LC-MS/MS; spectral counts normalised to the immunoprecipitated HA-RIOK2, fold change with respect to WT
Description: For collection of cellular lysates, lysis was similarly performed as described above. 5% of the supernatant was saved as Input, and pre-washed monoclonal anti-HA antibody tagged-agarose beads slurry (A2095, Sigma Aldrich) was added to the rest of the supernatant and incubated at 4° C. on a rocker O/N. The beads were washed with RIPA lysis buffer, resuspended in 2× laemmli buffer, boiled at 95° C. for 10 minutes, and immediately loaded for SDS-PAGE separation. Electrophoresis was performed until the proteins ran 1/6th of the entire gel size. The gel was Coomassie stained for 1 h at 25° C., de-stained at 4° C. O/N, and were cut with sterile blades, washed with MS-grade acetonitrile solution and submitted for Mass Spectrometry analysis at BIDMC Mass Spectrometry Core. […]
Gel separated protein samples were reduced with 55 mM DTT, alkylated with 10 mM iodoacetamide (Sigma-Aldrich), and digested O/N with TPCK modified trypsin/LysC (Promega) at pH=8.3. […] 3 μL of the digested protein samples were analyzed in positive ion mode via microcapillary tandem mass spectrometry (LC-MS/MS) using a high resolution hybrid QExactive HF Orbitrap Mass Spectrometer (Thermo Fisher Scientific) via HCD with data-dependent analysis (DDA) with 1 MS1 scan followed by 8 MS2 scans per cycle (Top 8). […]

B1: ΔTAD2 (enzyme, not shown: small tags and cut ends)
chain: MGKVNVAKLRYMSRDDFRVLTAVEMGMKNHEIVPGSLIASIASLKHGGCNKVLRELVKHKLIAWERTKTVQGYRLTRQVVESVGNQMGVGKESDIYIVANEEGQQFALKLHRLGRTSFRNLKNKRDYHKHRHNVSWLYLSRLSAMKEFAYMKALYERKFPVPKPIDYNRHAVVMELINGYPLCQIHHVEDPASVYDEAMELIVKLANHGLIHGDFNEFNLILDESDHITMIDFPQMVSTSHPNAEWYFDRDVKCIKDFFMKRFSYESELFPTFKDIRREDTLDVEVSASGYTKEMQADDELLHPLGPDDKNIETKEGSEFSFSDGEVAEKAEVYGSENESERNCLEESEGCYCRSSGDPEQIKEDSLSEESADARSFEMTEFNQALEEIKGQVVENNSVTEFSEEKNRTENYNRQDGQRVQGGVPAGSDEYEDECPHLIALSSLNREFRPFRDEENVGAMNQYRTRTLSITSSGSAVSCSTIPPELVKQKVKRQLTKQQKSAVRRRLQKGEANIFTKQRRENMQNIKSSLEAASFWGE
notes: The text defines it as N-terminal HA-tagged RIOK2 with amino acids 77-90 deleted; also called HA-ΔTAD2
binding result: no binding
